Experimental findings from patent publication US20220016215A1, “GIP RECEPTOR AGONIST PEPTIDE COMPOUNDS AND USES THEREOF” (TAKEDA PHAARMACEUTICAL COMPANY LIMITED, priority 2018, published 2022) are described below.

Starred links: 1 amine or outer side, 2 acyl side, 3 side chain; linkers in the order of their positions; H or OH if unused. Non-standard residues stand in square brackets, D forms with d. Groups on a side chain read outwards from the residue. No end group written: not given here. *: point of attachment. C15 diacid = O=C(O)CCCCCCCCCCCCCC(=O)*; γGlu = O=C(O)[C@H](CCC(=O)[*:2])N[*:1]; Palmitoyl = CCCCCCCCCCCCCCCC(=O)*; acyl = not defined here; Aib = CC(C)(N)C(=O)O

One experiment concerns the target T1, human GIPR (human, UniProt P48546 22-466).
T1 sequence (looked up): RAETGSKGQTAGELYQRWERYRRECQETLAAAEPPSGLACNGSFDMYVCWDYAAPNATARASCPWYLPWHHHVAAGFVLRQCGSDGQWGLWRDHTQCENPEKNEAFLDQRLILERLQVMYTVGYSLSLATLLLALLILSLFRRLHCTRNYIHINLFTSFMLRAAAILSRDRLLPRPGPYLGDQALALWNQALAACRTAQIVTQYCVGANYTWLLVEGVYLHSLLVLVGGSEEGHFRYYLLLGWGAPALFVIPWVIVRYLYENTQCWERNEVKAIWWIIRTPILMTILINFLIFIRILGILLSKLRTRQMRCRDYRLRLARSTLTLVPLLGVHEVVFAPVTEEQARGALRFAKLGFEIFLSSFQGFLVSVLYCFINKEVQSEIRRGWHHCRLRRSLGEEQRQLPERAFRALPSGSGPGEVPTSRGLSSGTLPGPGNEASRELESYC
The experiment in a line: cell-based or functional assay.

A further experiment concerns the target human GLP-1R (human, UniProt P43220 24-463). The experiment in a line: cell-based or functional assay.

Y[Aib]EGTFISDYSIALDKK([ethylene glycol-ethylene glycol-C15 diacid])HQQDFVNWLLAQR-NH2 [Compound No. 27]: the “GIPR EC50 nM (A)” value with human GIPR is 0.001 nM. For the same molecule, the “GLP1R pEC50” value with human GLP-1R turned out to be 6.02.
For the molecule Y[Aib]EGTFISDYSIALDKIK([ethylene glycol-ethylene glycol-C15 diacid])QQDFVNWLLAQRG-OH [Compound No. 25], the “GIPR EC50 nM (A)” value with human GIPR was < 0.001 nM. Further, in the experiment with human GLP-1R, the “GLP1R EC50 nM (B)” value is > 1000 nM and the “GLP1R pEC50” value was < 8.
For Y[Aib]EGTFISDYSIAMDKK([γGlu-Palmitoyl])HQQDFVNWLLAQKGKKNDWKHNIIQ-OH (not fully specified; also: acyl given as C16DA in synthesis) [Compound No. 5], in the experiment with human GIPR, the “GIPR EC50 nM (A)” value was determined as 0.001 nM; the “GIPR pEC50” value was 11.9; the “Selectivity Ratio (B/A), GLP1R EC50 over GIPR EC50” value (“Selectivity Ratio (B/A), GLP1R EC50” below) was found to be 93300. Also, the “GLP1R pEC50” value with human GLP-1R stood at 7.
Y[Aib]EGTFTSDYSI[Aib]LDKIAQRAFVQWLIA[Aib]KGKKQEWKHQITQK(acyl)-NH2 (reading uncertain; also: Lys43 acylated, acyl not given here) [Compound No. 16]: in the experiment with human GIPR, the “GIPR EC50 nM (A)” value was 0.001 nM and the “GIPR pEC50” value is 12. For the same molecule, the “GLP1R EC50 nM (B)” value with human GLP-1R was < 0.02 nM.
Regarding YAEGTFISDYSIAMDKIHQQDFVNWLLAQKGKKNDWKHNIIQ (Lys-(palmitoyl acyl fatty acid acyl) at 16; C-terminal -NH2) [Compound No. 3], in the experiment with human GIPR, the “GIPR EC50 nM (A)” value was found to be 0.331 nM and the “GIPR pEC50” value was 9.5. In the experiment with human GLP-1R, the “GLP1R EC50 nM (B)” value stood at 148 nM and the “GLP1R pEC50” value was 6.8.

B1: Compound No. 9 (peptide)
peptide: FXEGTFISDYXIAXDKIHQQDFVNWLLAQKGKKNDWKHNITQ
modifications: Aib at 2; X* = 1-amino,1-cyclopentane carboxylic acid at 11; Nle at 14; C-terminal -OH
Turning to B1, in the experiment with human GIPR, the “GIPR EC50 nM (A)” value was determined as 0.004 nM; the “GIPR pEC50” value turned out to be 11.4; the “Selectivity Ratio (B/A), GLP1R EC50” value was > 100000. In the experiment with human GLP-1R, the “GLP1R EC50 nM (B)” value was > 1000 nM and the “GLP1R pEC50” value is < 6.
On to YXEGTFISDYSIXXDKIHQQDFVNWLLAQKGKKNDWKHNITQ (3,5-diBr-Tyr at 1; Aib at 2; Aib at 13; Nle at 14; C-terminal -OH) [Compound No. 8], for which, in the experiment with human GIPR, the “GIPR pEC50” value was 10.7 and the “Selectivity Ratio (B/A), GLP1R EC50” value is 5600. Besides, in the experiment with human GLP-1R, the “GLP1R EC50 nM (B)” value is 118 nM and the “GLP1R pEC50” value came out at 6.9.
As to Y[dA]EGTFISDYSIAMDKIHQQDFVNWLLAQKGKKNDWKHNIIQ-NH2 [Compound No. 14], in the experiment with human GIPR, the “GIPR EC50 nM (A)” value is 0.001 nM and the “GIPR pEC50” value stood at 12.3. Besides, in the experiment with human GLP-1R, the “GLP1R EC50 nM (B)” value stood at 933 nM and the “GLP1R pEC50” value amounted to 6.03.
Consider Y[Aib]EGTFISDYSIALDKK([ethylene glycol-ethylene glycol-C15 diacid])HQQDFVNWLLAQRG-OH [Compound No. 26], for which the “GIPR EC50 nM (A)” value with human GIPR worked out at 0.001 nM. Besides, in the experiment with human GLP-1R, the “GLP1R EC50 nM (B)” value is > 1000 nM and the “GLP1R pEC50” value is < 9.
